Data as given in US20110189692A1.
Where “and” joins values, the source holds several entries; their conditions need not be identical. Equal values may be shown once.

Columns and labels:
[1] = molecular target: tau of normal human brain homogenate (native) (human) (UniProt P10636)
[2] = molecular target: PrP^Sc, pathogenic conformer of the human prion protein, from vCJD brain homogenate (human) (UniProt P04156)
[3] = molecular target: PrP^C, non-pathogenic human prion protein, from normal brain homogenate (human) (UniProt P04156)
[4] = molecular target: aggregated Aβ42 from Alzheimer's disease brain homogenate (human) (UniProt P05067)
[5] = molecular target: PrP^Sc, pathogenic conformer of the human prion protein, from vCJD brain homogenate (human) (UniProt P04156); remark: listed apart in the source

“PSR1 (peptoid reagent XIIb attached to magnetic beads) (designed binder)” was tested, and the tau ELISA signal after pulldown, mean of 3 [1] was 0.11 and 0.12, the tau ELISA signal after pulldown, replicate [1] was 0.11 and 0.12 and 0.13 and the ELISA signal after pulldown (RLU, ave) [2] was 53 RLU. For the same substance, the ELISA signal after pulldown (RLU, ave) [3] was 9.9 RLU, the recovery [4] was 100% and the pulldown efficiency [5] was 100%.
